Measured values as given in publication PMC10870823 (mBio, 2023).

Molecular target: T1, SARS-CoV-2 (Wuhan / WA-1) Spike RBD-mouse IgG2a Fc fusion protein (SARS-CoV-2, UniProt P0DTC2)
T1 construct: source: recombinant, purified
Assay: BLI
Settings: both partners purified

B1: FG-10A3 (Family G clone 10A3) human anti-SARS-CoV-2 Spike RBD monoclonal antibody (antibody, V domains shown)
VH: QVQLVESGGGVVQPGRSLRLSCAASGFTFSSYGMNWVRQAPGKGLEWVAIIWYDGNNTYYVDSVKGRFTISRDNSKNTLYLQMNSLRAEDTAVYYCARKDGSKTYYGYYFDYWGQGTLVTVSS
VL: DIQMTQSPSSLSASVGDRVTITCRASQSIHSFLNWYQQKPGKPPNLLIYAASSLQSGLPSRFSGSGSGTDFTLTISSLQPEDFATYYCQQSYITPPTFGHGTKVEIK
notes: also called Family G (FG)-10A3
- Kd: 0.125 nM
